Test results: paper PMC7688965

Columns and labels:
Test in all cases: IP-MS (HA-IP, label-free LC/MS-MS)
USP5 = settings: HA-tagged Hop exogenously overexpressed in KO1 cells; n = 2; right graph; read off a plot
PSMC4 = settings: HA-tagged Hop exogenously overexpressed in KO1 cells; n = 2; left graph; read off a plot
PSMC3 = settings: HA-tagged Hop exogenously overexpressed in KO1 cells; n = 2; left graph; read off a plot
PSMC2 = settings: HA-tagged Hop exogenously overexpressed in KO1 cells; n = 2; left graph; read off a plot
HSPA4L = settings: HA-tagged Hop exogenously overexpressed in KO1 cells; n = 2; read off a plot
PSMD12 = settings: HA-tagged Hop exogenously overexpressed in KO1 cells; n = 2; left graph; read off a plot
PSMD3 = settings: HA-tagged Hop exogenously overexpressed in KO1 cells; n = 2; left graph; read off a plot
DNAJA1 = settings: HA-tagged Hop exogenously overexpressed in KO1 cells; n = 2; read off a plot
DNAJA2 = settings: HA-tagged Hop exogenously overexpressed in KO1 cells; n = 2; read off a plot
UBA1 = settings: HA-tagged Hop exogenously overexpressed in KO1 cells; n = 2; right graph; read off a plot
USP10 = settings: HA-tagged Hop exogenously overexpressed in KO1 cells; n = 2; right graph; read off a plot
PSMD13 = settings: HA-tagged Hop exogenously overexpressed in KO1 cells; n = 2; left graph; read off a plot
USP7 = settings: HA-tagged Hop exogenously overexpressed in KO1 cells; n = 2; right graph; read off a plot
PSMC5 = settings: HA-tagged Hop exogenously overexpressed in KO1 cells; n = 2; left graph; read off a plot
PSMC1 = settings: HA-tagged Hop exogenously overexpressed in KO1 cells; n = 2; left graph; read off a plot
HSPA5 = settings: HA-tagged Hop exogenously overexpressed in KO1 cells; n = 2; read off a plot
HSPA6;HSPA7 = settings: HA-tagged Hop exogenously overexpressed in KO1 cells; n = 2; read off a plot
UBE2N;UBE2NL = settings: HA-tagged Hop exogenously overexpressed in KO1 cells; n = 2; right graph; read off a plot
PSMD11 = settings: HA-tagged Hop exogenously overexpressed in KO1 cells; n = 2; left graph; read off a plot
AHSA1 = settings: HA-tagged Hop exogenously overexpressed in KO1 cells; n = 2; read off a plot
HSPA4 = settings: HA-tagged Hop exogenously overexpressed in KO1 cells; n = 2; read off a plot
CDC37 = settings: HA-tagged Hop exogenously overexpressed in KO1 cells; n = 2; read off a plot
HSPH1 = settings: HA-tagged Hop exogenously overexpressed in KO1 cells; n = 2; read off a plot
HUWE1 = settings: HA-tagged Hop exogenously overexpressed in KO1 cells; n = 2; right graph; read off a plot

In the case of “HA-tagged WT Hop (from UniProt P31948) K8A; K229A”, the other: normalized enrichment (log2) WT Hop / K8A,K229A Hop (USP5) is reported as 2.3 log2, the other: normalized enrichment (log2) WT Hop / K8A,K229A Hop (PSMC4) is reported as 0.25 log2 and the other: normalized enrichment (log2) WT Hop / K8A,K229A Hop (PSMC3) is reported as 1 log2. It also gave an other: normalized enrichment (log2) WT Hop / K8A,K229A Hop (PSMC2) of 0.65 log2, an other: normalized enrichment (log2) WT Hop / K8A,K229A Hop (HSPA4L) of 3 log2 and an other: normalized enrichment (log2) WT Hop / K8A,K229A Hop (PSMD12) of 3.1 log2. The other: normalized enrichment (log2) WT Hop / K8A,K229A Hop (PSMD3) was 1.5 log2, the other: normalized enrichment (log2) WT Hop / K8A,K229A Hop (DNAJA1) was 3.9 log2 and the other: normalized enrichment (log2) WT Hop / K8A,K229A Hop (DNAJA2) was 4.3 log2. The other: normalized enrichment (log2) WT Hop / K8A,K229A Hop (UBA1) was 0.85 log2, the other: normalized enrichment (log2) WT Hop / K8A,K229A Hop (USP10) was 2.5 log2 and the other: normalized enrichment (log2) WT Hop / K8A,K229A Hop (PSMD13) was 2.1 log2. It also gave an other: normalized enrichment (log2) WT Hop / K8A,K229A Hop (USP7) of 2.9 log2, an other: normalized enrichment (log2) WT Hop / K8A,K229A Hop (PSMC5) of 1.3 log2 and an other: normalized enrichment (log2) WT Hop / K8A,K229A Hop (PSMC1) of 0.95 log2. It also gave an other: normalized enrichment (log2) WT Hop / K8A,K229A Hop (HSPA5) of 2.5 log2, an other: normalized enrichment (log2) WT Hop / K8A,K229A Hop (HSPA6;HSPA7) of 4.5 log2 and an other: normalized enrichment (log2) WT Hop / K8A,K229A Hop (UBE2N;UBE2NL) of 0.8 log2. It also gave an other: normalized enrichment (log2) WT Hop / K8A,K229A Hop (PSMD11) of 1.7 log2, an other: normalized enrichment (log2) WT Hop / K8A,K229A Hop (AHSA1) of 3 log2 and an other: normalized enrichment (log2) WT Hop / K8A,K229A Hop (HSPA4) of 1.7 log2. The other: normalized enrichment (log2) WT Hop / K8A,K229A Hop (CDC37) was 3.2 log2, the other: normalized enrichment (log2) WT Hop / K8A,K229A Hop (HSPH1) was 4 log2 and the other: normalized enrichment (log2) WT Hop / K8A,K229A Hop (HUWE1) was 2.7 log2.
